Results published in PMC6994237, “HOPS recognizes each SNARE, assembling ternary trans-complexes for rapid fusion upon engagement with the 4th SNARE” (eLife, 2020).

T1: Qa-SNARE Vam3, full-length, wild-type (S. cerevisiae, UniProt Q12241 1-283)
T1 construct: Vam3, vacuolar Qa-SNARE, S. cerevisiae, full length; Isolated as GST-Qa (Mima et al., 2008); also called GST-Qa; source: E. coli, purified; reconstituted into proteoliposomes
T1 sequence (looked up): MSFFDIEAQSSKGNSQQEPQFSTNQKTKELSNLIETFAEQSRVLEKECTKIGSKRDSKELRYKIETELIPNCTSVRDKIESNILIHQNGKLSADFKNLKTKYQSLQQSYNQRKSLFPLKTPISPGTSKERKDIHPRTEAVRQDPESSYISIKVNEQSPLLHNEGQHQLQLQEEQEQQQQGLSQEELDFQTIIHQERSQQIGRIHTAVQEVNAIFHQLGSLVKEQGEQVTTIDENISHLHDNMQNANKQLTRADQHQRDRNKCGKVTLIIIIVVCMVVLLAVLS

T2: Qc-SNARE Vam7, full-length, wild-type (inherently water-soluble) (S. cerevisiae, UniProt P32912 1-316)
T2 construct: Vam7, vacuolar Qc-SNARE, S. cerevisiae, full length; source: E. coli, purified
T2 sequence (looked up): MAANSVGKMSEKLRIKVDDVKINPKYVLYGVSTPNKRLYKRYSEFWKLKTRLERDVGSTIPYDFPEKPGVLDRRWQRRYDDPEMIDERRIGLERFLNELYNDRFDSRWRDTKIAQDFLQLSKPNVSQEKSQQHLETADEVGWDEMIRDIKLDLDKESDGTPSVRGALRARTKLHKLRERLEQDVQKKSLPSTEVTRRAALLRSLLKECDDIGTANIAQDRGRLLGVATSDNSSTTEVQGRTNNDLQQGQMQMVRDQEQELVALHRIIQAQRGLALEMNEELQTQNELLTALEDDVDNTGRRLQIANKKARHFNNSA

B1: GST-Nyv1, GST-tagged full-length R SNARE (natural protein, S. cerevisiae, UniProt Q12255 1-253, looked up)
chain: MKRFNVSYVEVIKNGETISSCFQPFQKNENYGTITSANEQITPVIFHNLIMDMVLPKVVPIKGNKVTKMSMNLIDGFDCFYSTDDHDPKTVYVCFTLVDMPKILPIRILSGLQEYESNATNELLSSHVGQILDSFHEELVEYRNQTLNSSGNGQSSNGNGQNTISDIGDATEDQIKDVIQIMNDNIDKFLERQERVSLLVDKTSQLNSSSNKFRRKAVNIKEIMWWQKVKNITLLTFTIILFVSAAFMFFYLW
notes: Nyv1, vacuolar R-SNARE, S. cerevisiae, full length, cloned into pGST parallel1; Vector pGST parallel1 (Sheffield et al., 1999), BamHI/SalI; also called GST-R; GST-tagged R SNARE; source: E. coli Rosetta(DE3)pLysS, purified (glutathione-Sepharose 4B, in β-octylglucoside)
B2: R-SNARE Nyv1, full-length, wild-type, untagged (natural protein, S. cerevisiae, UniProt Q12255 1-253, looked up)
chain: B1 chain
notes: Nyv1, vacuolar R-SNARE, S. cerevisiae, full length; source: E. coli, purified; buffer exchanged into β-octylglucoside; reconstituted into proteoliposomes
B3: his6-Vam3 (full length), His6-tagged Qa SNARE (natural protein, S. cerevisiae, UniProt Q12241 1-283, looked up)
chain: T1 sequence (looked up)
notes: Vam3, vacuolar Qa-SNARE, S. cerevisiae, full length; A 36 amino acyl linker stands between the his6 tag and the N-terminus (Izawa et al., 2012, PMID 22174414); also called His6-Qa; source: E. coli, purified; not shown: His6 (with a 36 amino acyl linker), N-terminal, kept
B4: his6-Vti1 (full length), his6-tagged Qb SNARE (natural protein, S. cerevisiae, UniProt Q04338 1-217, looked up)
chain: MSSLLISYESDFKTTLEQAKASLAEAPSQPLSQRNTTLKHVEQQQDELFDLLDQMDVEVNNSIGDASERATYKAKLREWKKTIQSDIKRPLQSLVDSGDRDRLFGDLNASNIDDDQRQQLLSNHAILQKSGDRLKDASRIANETEGIGSQIMMDLRSQRETLENARQTLFQADSYVDKSIKTLKTMTRRLVANKFISYAIIAVLILLILLVLFSKFK
notes: Vti1, vacuolar Qb-SNARE, S. cerevisiae, full length; A 36 amino acyl linker stands between the his6 tag and the N-terminus (Izawa et al., 2012, PMID 22174414); also called his6-Qb; source: E. coli, purified; not shown: His6 (with a 36 amino acyl linker), N-terminal, kept
B5: Qb-SNARE Vti1, full-length, wild-type (natural protein, S. cerevisiae, UniProt Q04338 1-217, looked up)
chain: B4 chain
notes: Vti1, vacuolar Qb-SNARE, S. cerevisiae, full length; the text names it Qb without a tag; also called GST-Qb; source: E. coli, purified; buffer exchanged into β-octylglucoside; reconstituted into proteoliposomes

Columns and labels:
Settings in all cases: both partners purified
[1] = biological target: T1, Qa-SNARE Vam3, full-length, wild-type; assay: pull-down; GST-tagged R at 4 µM mixed with 4 µM of the other indicated full-length SNAREs in 20 mM HEPES-NaOH pH 7.4, 150 mM NaCl, 10% glycerol, 100 mM ß-octylglucoside; 1 hr 4°C; glutathione agarose 4B; Coomassie-stained gel
[2] = biological target: B3; assay: pull-down; his6-tagged Qa or his6-tagged Qb at 4 µM mixed with 4 µM of the other indicated full-length SNAREs in 20 mM HEPES-NaOH pH 7.4, 150 mM NaCl, 10% glycerol, 100 mM ß-octylglucoside, 20 mM imidazole; 1 hr 4°C; nickel-NTA agarose; Coomassie-stained gel
[3] = biological target: T1, Qa-SNARE Vam3, full-length, wild-type; assay: co-IP; Ypt7/R and Ypt7/QaQb proteoliposomes incubated 33 min with or without 50 nM HOPS and 4 μM Qc; solubilised in modified RIPA buffer with 5 μM GST-R; precipitated with anti-Qa antibody on protein A magnetic beads, 4°C 2 hr; immunoblot for R
[4] = biological target: T2, Qc-SNARE Vam7, full-length, wild-type …; assay: pull-down; his6-tagged Qa or his6-tagged Qb at 4 µM mixed with 4 µM of the other indicated full-length SNAREs in 20 mM HEPES-NaOH pH 7.4, 150 mM NaCl, 10% glycerol, 100 mM ß-octylglucoside, 20 mM imidazole; 1 hr 4°C; nickel-NTA agarose; Coomassie-stained gel
[5] = biological target: T1, Qa-SNARE Vam3, full-length, wild-type; assay: as above

Binder: B1
- binding result [1]: binds

Binder: B2
- binding result [2]: binds
- binding result [3]: binds

Binder: B3
- binding result [4]: binds

Binder: B4
- binding result [5]: binds

Binder: B5
- binding result [2]: binds
